Experimental data taken from patent publication US20220332804A1 (CSL INNOVATION, published 2022).
Residue numbers refer to the chain shown, from its start.

B1: RF16-226 (antibody)
heavy: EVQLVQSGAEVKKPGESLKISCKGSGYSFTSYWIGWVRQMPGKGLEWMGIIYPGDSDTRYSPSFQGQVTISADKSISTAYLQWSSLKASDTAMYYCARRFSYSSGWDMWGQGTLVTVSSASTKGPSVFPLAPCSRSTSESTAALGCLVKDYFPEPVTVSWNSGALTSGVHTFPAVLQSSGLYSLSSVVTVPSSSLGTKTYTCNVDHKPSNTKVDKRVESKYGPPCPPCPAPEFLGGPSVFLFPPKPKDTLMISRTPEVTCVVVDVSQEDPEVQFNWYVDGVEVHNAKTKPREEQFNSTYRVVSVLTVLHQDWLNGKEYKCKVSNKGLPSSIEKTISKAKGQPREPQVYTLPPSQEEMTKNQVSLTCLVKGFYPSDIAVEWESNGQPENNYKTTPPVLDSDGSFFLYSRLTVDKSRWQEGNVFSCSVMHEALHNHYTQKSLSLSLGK
light: SYELTQPPSVSVSPGQTARITCSGDALTSKYVAWYQQKSGLAPLLVIYEDTRRPSGIPAKFSGSSSGSVATLTISGAHGDDEADYYCYSTDASGHQRVFGGGTKLTVLSQPKAAPSVTLFPPSSEELQANKATLVCLISDFYPGAVTVAWKADGSPVKAGVETTKPSKQSNNKYAASSYLSLTPEQWKSHRSYSCQVTHEGSTVEKTVAPTECS
B2: RF16-242 (antibody, human IgG4 S228P, lambda, V domains shown)
VH: EVQLLQSGAEVKKPGESLKISCKGSGYSFTSYWIGWVRQMPGKGLEWMGIIYPGDSDTRYSPSFQGQVTISADKSISTAYLQWSSLKASDTAMYYCARRGHYGDYFDYWGQGTLVTVSS
VL: SYELTQPPSVSVSPGQTARITCSGDALPKKYAYWYHQKSGQAPVLVIYEDRRRPSEIPERFSGSSSGTMATLTITGAQVEDEGVYFCYSRDRAGNQRVFGGGTQLTVLG
notes: pH-dependent anti-C2 antibody from a phage display library

Key:
[1] = molecular target: T1, human complement C2 (human, UniProt P06681 21-752); experiment: cell-based or functional assay
T1 sequence: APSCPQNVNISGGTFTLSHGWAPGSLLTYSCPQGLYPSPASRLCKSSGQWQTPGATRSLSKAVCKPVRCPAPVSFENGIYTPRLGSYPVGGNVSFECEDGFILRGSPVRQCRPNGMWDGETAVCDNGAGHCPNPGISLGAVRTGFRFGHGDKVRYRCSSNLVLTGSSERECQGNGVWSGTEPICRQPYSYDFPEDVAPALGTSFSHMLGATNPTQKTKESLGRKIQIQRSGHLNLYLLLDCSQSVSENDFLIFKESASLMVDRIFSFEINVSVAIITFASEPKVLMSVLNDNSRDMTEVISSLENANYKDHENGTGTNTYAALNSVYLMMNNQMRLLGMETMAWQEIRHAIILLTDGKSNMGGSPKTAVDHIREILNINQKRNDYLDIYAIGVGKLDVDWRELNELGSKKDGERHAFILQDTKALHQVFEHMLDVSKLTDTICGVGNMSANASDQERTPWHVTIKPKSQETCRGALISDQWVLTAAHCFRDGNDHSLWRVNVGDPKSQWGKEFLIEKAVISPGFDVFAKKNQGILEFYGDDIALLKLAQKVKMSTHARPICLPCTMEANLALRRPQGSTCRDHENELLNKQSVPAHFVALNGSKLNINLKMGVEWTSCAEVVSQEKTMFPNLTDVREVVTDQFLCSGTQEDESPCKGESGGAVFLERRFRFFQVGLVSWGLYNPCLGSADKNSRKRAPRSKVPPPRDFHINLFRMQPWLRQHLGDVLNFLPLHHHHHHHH

[2] = molecular target: T2, human C2 F270A (human, UniProt P06681 21-752); experiment: SPR, KD relative to WT C2;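 note: biacore SPR at 37 °C, anti-C2 mAbs captured on anti-human IgG chips with alanine or serine point mutants of C2 as analyte, KD from 1:1 fit compared with wild-type C2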
T2 sequence: T1 sequence with F250A

[3] = molecular target: T3, human C2 F437A (human, UniProt P06681 21-752); experiment: SPR, KD relative to WT C2;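 note: biacore SPR at 37 °C, anti-C2 mAbs captured on anti-human IgG chips with alanine or serine point mutants of C2 as analyte, KD from 1:1 fit compared with wild-type C2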
T3 sequence: T1 sequence with F417A

[4] = molecular target: T4, human C2 K430A (human, UniProt P06681 21-752); experiment: SPR, KD relative to WT C2;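 note: biacore SPR at 37 °C, anti-C2 mAbs captured on anti-human IgG chips with alanine or serine point mutants of C2 as analyte, KD from 1:1 fit compared with wild-type C2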
T4 sequence: T1 sequence with K410A

| Binder | log IC50 for inhibition of C1s-mediated cleavage of C2 (C2a band on SDS-PAGE, C1s titrated) [1] [nM] | Fold diff [2] [fold] | Fold diff [3] [fold] | Fold diff [4] [fold] |
| --- | --- | --- | --- | --- |
| B1 | 50.3 | – | – | – |
| B2 | – | 15 | 15 | 13 |
